{"source": "paper PMC9960064", "about": "(The Journal of Cell Biology, 2023)", "key": {"[1]": {"biological_target": "T1, β′-COP D98A/D117A, residues 1–604, untagged (yeast (S. cerevisiae), UniProt P41811 1-604, D98A | D117A)", "T1 sequence (looked up)": "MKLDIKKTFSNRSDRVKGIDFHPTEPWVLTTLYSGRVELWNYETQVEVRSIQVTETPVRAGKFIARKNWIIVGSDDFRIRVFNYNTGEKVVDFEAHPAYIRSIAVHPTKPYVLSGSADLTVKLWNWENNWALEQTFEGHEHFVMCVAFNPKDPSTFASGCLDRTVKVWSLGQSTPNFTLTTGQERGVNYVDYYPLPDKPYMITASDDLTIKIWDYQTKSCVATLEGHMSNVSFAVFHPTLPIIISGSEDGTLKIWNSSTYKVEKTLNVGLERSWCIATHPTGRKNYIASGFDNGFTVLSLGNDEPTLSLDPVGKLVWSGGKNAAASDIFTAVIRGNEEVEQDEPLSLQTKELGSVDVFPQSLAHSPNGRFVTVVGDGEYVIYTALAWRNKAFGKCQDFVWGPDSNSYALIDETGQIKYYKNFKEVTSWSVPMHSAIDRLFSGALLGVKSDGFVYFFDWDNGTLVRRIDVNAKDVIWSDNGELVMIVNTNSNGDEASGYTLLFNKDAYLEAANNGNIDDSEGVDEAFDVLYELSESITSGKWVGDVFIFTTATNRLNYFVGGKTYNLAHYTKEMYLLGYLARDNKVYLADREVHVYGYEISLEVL", "assay": "ITC"}, "[2]": {"biological_target": "T2, untagged β′-COP residues 1–604 (yeast (S. cerevisiae), UniProt P41811 1-604)", "T2 sequence (looked up)": "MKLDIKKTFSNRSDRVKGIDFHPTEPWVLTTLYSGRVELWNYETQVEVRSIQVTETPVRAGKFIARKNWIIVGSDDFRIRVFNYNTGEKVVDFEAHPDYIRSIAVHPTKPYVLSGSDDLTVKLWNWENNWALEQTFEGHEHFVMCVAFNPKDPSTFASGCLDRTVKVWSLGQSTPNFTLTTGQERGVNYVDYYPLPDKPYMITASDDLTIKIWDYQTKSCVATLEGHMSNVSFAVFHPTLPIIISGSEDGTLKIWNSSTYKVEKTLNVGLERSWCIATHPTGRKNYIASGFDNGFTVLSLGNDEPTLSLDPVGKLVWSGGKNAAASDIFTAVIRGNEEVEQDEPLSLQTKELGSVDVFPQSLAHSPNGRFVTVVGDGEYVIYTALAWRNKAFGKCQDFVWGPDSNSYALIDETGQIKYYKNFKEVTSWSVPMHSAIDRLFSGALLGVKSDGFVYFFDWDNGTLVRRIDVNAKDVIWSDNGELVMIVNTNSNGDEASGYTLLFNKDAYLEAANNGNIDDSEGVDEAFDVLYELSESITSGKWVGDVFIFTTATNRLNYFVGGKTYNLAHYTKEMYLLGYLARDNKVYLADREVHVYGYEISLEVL", "assay": "ITC"}, "[3]": {"biological_target": "T3, mutant β′-COP (D437A/D450A), residues 1–604, untagged (yeast (S. cerevisiae), UniProt P41811 1-604, D437A | D450A)", "T3 sequence (looked up)": "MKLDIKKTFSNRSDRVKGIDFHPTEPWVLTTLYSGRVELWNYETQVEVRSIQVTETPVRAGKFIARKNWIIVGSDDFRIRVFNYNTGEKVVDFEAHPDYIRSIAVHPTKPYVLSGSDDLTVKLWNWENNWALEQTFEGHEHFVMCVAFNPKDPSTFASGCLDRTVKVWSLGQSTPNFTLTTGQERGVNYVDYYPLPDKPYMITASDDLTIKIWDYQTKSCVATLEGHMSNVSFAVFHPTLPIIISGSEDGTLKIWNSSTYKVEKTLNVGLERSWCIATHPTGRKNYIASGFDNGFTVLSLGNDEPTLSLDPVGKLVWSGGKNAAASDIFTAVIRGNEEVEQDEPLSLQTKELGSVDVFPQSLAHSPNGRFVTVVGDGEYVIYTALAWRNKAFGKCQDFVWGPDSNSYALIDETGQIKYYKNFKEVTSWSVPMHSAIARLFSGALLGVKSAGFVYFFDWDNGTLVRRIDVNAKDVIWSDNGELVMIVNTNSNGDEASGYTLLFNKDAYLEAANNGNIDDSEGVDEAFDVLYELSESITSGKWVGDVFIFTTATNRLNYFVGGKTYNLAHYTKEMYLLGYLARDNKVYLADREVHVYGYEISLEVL", "assay": "ITC"}, "[4]": {"biological_target": "T4, N-terminal β′-COP propeller (residues 1–304), untagged (yeast (S. cerevisiae), UniProt P41811 1-304)", "T4 sequence (looked up)": "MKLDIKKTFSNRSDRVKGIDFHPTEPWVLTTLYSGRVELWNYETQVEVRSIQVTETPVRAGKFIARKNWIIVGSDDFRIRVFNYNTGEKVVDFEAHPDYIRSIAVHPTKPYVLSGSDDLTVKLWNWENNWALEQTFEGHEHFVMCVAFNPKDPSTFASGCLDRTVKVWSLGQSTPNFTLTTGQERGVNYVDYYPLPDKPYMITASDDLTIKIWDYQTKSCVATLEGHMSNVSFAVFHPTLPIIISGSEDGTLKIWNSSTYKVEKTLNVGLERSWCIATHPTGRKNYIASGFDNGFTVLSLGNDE", "assay": "ITC"}, "[5]": {"biological_target": "T5, β′-COP residues 1–604 with a C-terminal GST tag (yeast (S. cerevisiae), UniProt P41811 1-604)", "T5 sequence (looked up)": "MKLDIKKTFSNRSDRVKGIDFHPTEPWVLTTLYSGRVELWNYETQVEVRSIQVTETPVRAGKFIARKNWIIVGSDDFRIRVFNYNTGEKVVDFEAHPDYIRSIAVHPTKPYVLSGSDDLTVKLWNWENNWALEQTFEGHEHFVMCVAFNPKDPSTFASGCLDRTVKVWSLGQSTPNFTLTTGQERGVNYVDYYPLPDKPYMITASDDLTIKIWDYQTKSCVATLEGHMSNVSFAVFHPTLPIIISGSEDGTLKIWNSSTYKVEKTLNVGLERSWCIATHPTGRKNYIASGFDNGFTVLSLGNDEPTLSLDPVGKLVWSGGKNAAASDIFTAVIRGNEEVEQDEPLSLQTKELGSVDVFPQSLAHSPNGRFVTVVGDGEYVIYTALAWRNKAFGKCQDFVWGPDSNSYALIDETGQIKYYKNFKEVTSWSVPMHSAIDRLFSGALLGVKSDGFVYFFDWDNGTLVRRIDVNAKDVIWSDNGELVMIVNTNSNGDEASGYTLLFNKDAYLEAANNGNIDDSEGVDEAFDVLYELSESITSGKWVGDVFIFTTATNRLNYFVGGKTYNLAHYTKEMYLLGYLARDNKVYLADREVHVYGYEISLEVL", "assay": "pull-down"}, "β′604-H6": {"biological_target": "T6, β′604-H6 (yeast (S. cerevisiae), UniProt P41811 1-604)", "T6 sequence (looked up)": "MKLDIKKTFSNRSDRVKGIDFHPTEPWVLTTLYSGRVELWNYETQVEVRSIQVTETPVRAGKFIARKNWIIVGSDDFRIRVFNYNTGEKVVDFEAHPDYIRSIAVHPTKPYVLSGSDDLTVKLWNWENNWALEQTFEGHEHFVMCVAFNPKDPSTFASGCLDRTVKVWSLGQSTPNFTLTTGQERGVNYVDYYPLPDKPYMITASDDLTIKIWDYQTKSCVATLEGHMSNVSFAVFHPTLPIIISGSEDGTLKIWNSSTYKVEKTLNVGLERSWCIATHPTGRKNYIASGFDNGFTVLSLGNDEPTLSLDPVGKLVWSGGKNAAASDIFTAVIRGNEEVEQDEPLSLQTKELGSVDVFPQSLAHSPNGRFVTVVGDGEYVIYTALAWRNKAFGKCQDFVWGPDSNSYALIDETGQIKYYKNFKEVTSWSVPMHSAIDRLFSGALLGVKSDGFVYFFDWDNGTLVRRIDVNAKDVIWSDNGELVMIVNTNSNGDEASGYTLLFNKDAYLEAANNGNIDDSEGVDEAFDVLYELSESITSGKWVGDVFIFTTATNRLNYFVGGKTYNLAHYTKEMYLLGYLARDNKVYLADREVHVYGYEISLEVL", "assay": "pull-down"}}, "note": "Where “and” joins values, the source holds several entries; their conditions need not be identical. Identical values can stand only once."}
{"binder": "untagged Glo3 residues 230–290 (domain or fragment, yeast (S. cerevisiae), UniProt P38682 230-290, looked up) SQDKKKHSILSSSRKPTRLTAKKVDKSQAEDLFDQFKKEAQQEKEDEFTNSSSSTKIRQND", "values": [{"measurement": "binding result", "setting": "[1]", "result": "binds"}, {"measurement": "Kd", "setting": "[2]", "result": "0.6 µM and 0.8 to 6 µM"}, {"measurement": "stoichiometry N", "setting": "[2]", "result": 1}, {"measurement": "Kd", "setting": "[3]", "result": 18, "unit": "µM"}]}
{"binder": "Glo3 (residues 230–290) K233E (domain or fragment, yeast (S. cerevisiae), UniProt P38682 230-290, looked up) SQDEKKHSILSSSRKPTRLTAKKVDKSQAEDLFDQFKKEAQQEKEDEFTNSSSSTKIRQND", "values": [{"measurement": "Kd", "setting": "[2]", "result": "~12", "unit": "µM"}]}
{"binder": "Glo3 (residues 230–290) K233E/K234E/K235E (domain or fragment, yeast (S. cerevisiae), UniProt P38682 230-290, looked up) SQDEEEHSILSSSRKPTRLTAKKVDKSQAEDLFDQFKKEAQQEKEDEFTNSSSSTKIRQND", "values": [{"measurement": "Kd", "setting": "[2]", "result": "< 300", "unit": "µM"}]}
{"binder": "Glo3 (residues 230–290) K251E/K252E/K255E (domain or fragment, yeast (S. cerevisiae), UniProt P38682 230-290, looked up) SQDKKKHSILSSSRKPTRLTAEEVDESQAEDLFDQFKKEAQQEKEDEFTNSSSSTKIRQND", "values": [{"measurement": "Kd", "setting": "[2]", "result": "~12", "unit": "µM"}]}
{"binder": "Glo3 residues 220–290, untagged (domain or fragment, yeast (S. cerevisiae), UniProt P38682 220-290, looked up) TASRKKPVLNSQDKKKHSILSSSRKPTRLTAKKVDKSQAEDLFDQFKKEAQQEKEDEFTNSSSSTKIRQND", "values": [{"measurement": "binding result", "setting": "[2]", "result": "binds"}]}
{"binder": "untagged Glo3 BoCCS fragment (residues 230–300) (domain or fragment, yeast (S. cerevisiae), UniProt P38682 230-300, looked up) SQDKKKHSILSSSRKPTRLTAKKVDKSQAEDLFDQFKKEAQQEKEDEFTNSSSSTKIRQNDYDSQFMNNSK", "values": [{"measurement": "Kd", "setting": "[4]", "result": "< 300", "unit": "µM"}, {"measurement": "Kd", "setting": "[2]", "result": "~1", "unit": "µM"}, {"measurement": "stoichiometry N", "setting": "[2]", "result": 1}]}
{"binder": "SQDKKKHSILSSSRKPTRLTAKKVDKSQAEDLFDQFKKEAQ (domain or fragment, yeast (S. cerevisiae), UniProt P38682 230-270, looked up)", "note": "[Glo3 residues 230–270, untagged]", "values": [{"measurement": "binding result", "setting": "[2]", "result": "binds"}]}
{"binder": "full-length Glo3-H8 (natural protein) not shown", "values": [{"measurement": "binding result", "setting": "[5]", "result": "binds"}]}
{"binder": "GST-BoCCS, Glo3 residues 208–383 (domain or fragment, yeast (S. cerevisiae), UniProt P38682 208-383, looked up) KTTVTKTRSSILTASRKKPVLNSQDKKKHSILSSSRKPTRLTAKKVDKSQAEDLFDQFKKEAQQEKEDEFTNSSSSTKIRQNDYDSQFMNNSKGNNNNSIDDINTQPDEFNDFLNDTSNSFDTTRKEQQDTLTPKFAKLGFGMTMNDANDLAKQQKESQKIAQGPRYTGRIAERYG", "values": [{"measurement": "binding result", "setting": "β′604-H6", "result": "binds"}]}
